This experiment addresses endogenous optineurin (rat (endogenous in RGC5)) (UniProt Q8R5M4). Description: native gel or EMSA; native blue gel electrophoresis (NativePAGE Novex Bis-Tris gel) of lysates in IP buffer from RGC5 cells or RGC5 cells transfected with pTarget-FLAG-OPTN, non-reducing; Western blot with anti-C-terminal optineurin or anti-FLAG. (In EMSA bound probe runs differently from free probe, usually more slowly.)

From paper PMC2820081 come the findings set out here.

By stoichiometry N is commonly meant a count of units in the complex or per binding partner. Consider “endogenous optineurin (from UniProt Q8R5M4 1-585) (natural protein)”, for which the stoichiometry N came out at 6.
